This passage reports Km and kcat results from EP2415863A1, “Mutant glucose oxidase” (B.R.A.I.N., priority 2010, dated 2012).

What all share (assay type): biochemical, Aspergillus niger
Substrate in data set [1]: OC[C@H]1OC(O)[C@H](O)[C@@H](O)[C@@H]1O
As to the kind of experiment: Kinetic constants by ABTS assay, wt GOx. The settings on record: other: wt GOx, 2.5-100 mM glucose. The source says: (§1) For detection of GOx activity the ABTS assay was used. 2,2'-azino-bis(3-ethylbenzthiazoline-6-sulphonic acid (ABTS) is commonly used as a substrate with hydrogen peroxide for a peroxidase generating enzyme. Its use allows the reaction kinetics of peroxidases to be followed, to indirectly follow the reaction kinetics of a hydrogen peroxide-producing enzyme or to quantify the amount of hydrogen peroxide in a sample [vanGijlswijk, R.P.M., et al., Fluorochrome-labeled tyramides: Use in immunocytochemistry and fluorescence in situ hybridization. Journal of Histochemistry & Cytochemistry, 1997. 45(3): p. 375-382].
(§2) The kinetic constants were determined using the Specord 200 from (Analytik Jena, Germany) and the ABTS assay [Zhu, Z.W., et al. 2006, Making glucose oxidase fit for biofuel cell applications by directed protein evolution. Biosensors & Bioelectronics, 21(11): 2046-2051]. The measurements were performed in 1 ml of reaction volume and 1 cm light pathway cuvettes, using 2.5, 5, 10, 25, 50 and 100 mM glucose. The data were fitted using Origin 6 (OriginLab Corporation, Northampton).

Substrate in data set [2]: OC[C@H]1OC(O)[C@H](O)[C@@H](O)[C@@H]1O
As to the kind of experiment: Kinetic constants by ABTS assay, parent GOx B11. The conditions noted are these: other: Parent GOx (B11), 2.5-100 mM glucose.
Text: as §1, §2

Substrate in data set [3]: OC[C@H]1OC(O)[C@H](O)[C@@H](O)[C@@H]1O
As to the kind of experiment: Kinetic constants by ABTS assay, GOx mutant M12. The conditions noted are these: other: M12, 2.5-100 mM glucose.
Text: as §1, §2

B1: Aspergillus niger glucose oxidase (GOx), wild type, SEQ ID NO: 3 (Aspergillus niger) (protein)
chain: SNGIEASLLTDPKDVSGRTVDYIIAGGGLTGLTTAARLTENPNISVLVIESGSYESDRGPIIEDLNAYGDIFGSSVDHAYETVELATNNQTALIRSGNGLGGSTLVNGGTWTRPHKAQVDSWETVFGNEGWNWDNVAAYSLQAERARAPNAKQIAAGHYFNASCHGVNGTVHAGPRDTGDDYSPIVKALMSAVEDRGVPTKKDFGCGDPHGVSMFPNTLHEDQVRSDAAREWLLPNYQRPNLQVLTGQYVGKVLLSQNGTTPRAVGVEFGTHKGNTHNVYAKHEVLLAAGSAVSPTILEYSGIGMKSILEPLGIDTVVDLPVGLNLQDQTTATVRSRITSAGAGQGQAAWFATFNETFGDYSEKAHELLNTKLEQWAEEAVARGGFHNTTALLIQYENYRDWIVNHNVAYSELFLDTAGVASFDVWDLLPFTRGYVHILDKDPYLHHFAYDPQYFLNELDLLGQAAATQLARNISNSGAMQTYFAGETIPGDNLAYDADLSAWTEYIPYHFRPNYHGVGTCSMMPKEMGGVVDNAARVYGVQGLRVIDGSIPPTQMSSHVMTVFYAMALKISDAILEDYASMQ
notes: made in house; host or cells: Saccharomyces cerevisiae (pYES2 vector)
Take B1: the Km in data set [1] is 22.0 mM mM.

B2: Aspergillus niger glucose oxidase (GOx) parent mutant B11, T30V, I94V, SEQ ID NO: 5 (Aspergillus niger; I116V/T52V) (protein)
chain: SNGIEASLLTDPKDVSGRTVDYIIAGGGLVGLTTAARLTENPNISVLVIESGSYESDRGPIIEDLNAYGDIFGSSVDHAYETVELATNNQTALVRSGNGLGGSTLVNGGTWTRPHKAQVDSWETVFGNEGWNWDNVAAYSLQAERARAPNAKQIAAGHYFNASCHGVNGTVHAGPRDTGDDYSPIVKALMSAVEDRGVPTKKDFGCGDPHGVSMFPNTLHEDQVRSDAAREWLLPNYQRPNLQVLTGQYVGKVLLSQNGTTPRAVGVEFGTHKGNTHNVYAKHEVLLAAGSAVSPTILEYSGIGMKSILEPLGIDTVVDLPVGLNLQDQTTATVRSRITSAGAGQGQAAWFATFNETFGDYSEKAHELLNTKLEQWAEEAVARGGFHNTTALLIQYENYRDWIVNHNVAYSELFLDTAGVASFDVWDLLPFTRGYVHILDKDPYLHHFAYDPQYFLNELDLLGQAAATQLARNISNSGAMQTYFAGETIPGDNLAYDADLSAWTEYIPYHFRPNYHGVGTCSMMPKEMGGVVDNAARVYGVQGLRVIDGSIPPTQMSSHVMTVFYAMALKISDAILEDYASMQ
notes: made in house; host or cells: Saccharomyces cerevisiae (pYES2 plasmid B11 GOx)
For B2, in data set [2], the Km turned out to be 16.0 mM mM and the kcat worked out at 80.0 S-^1 S-^1.

B3: Aspergillus niger glucose oxidase (GOx) variant M12, N2Y, K13E, T30V, I94V, K152R, SEQ ID NO: 1 (Aspergillus niger; I116V/K174R/K35E/N24Y/T52V) (protein)
chain: SYGIEASLLTDPEDVSGRTVDYIIAGGGLVGLTTAARLTENPNISVLVIESGSYESDRGPIIEDLNAYGDIFGSSVDHAYETVELATNNQTALVRSGNGLGGSTLVNGGTWTRPHKAQVDSWETVFGNEGWNWDNVAAYSLQAERARAPNARQIAAGHYFNASCHGVNGTVHAGPRDTGDDYSPIVKALMSAVEDRGVPTKKDFGCGDPHGVSMFPNTLHEDQVRSDAAREWLLPNYQRPNLQVLTGQYVGKVLLSQNGTTPRAVGVEFGTHKGNTHNVYAKHEVLLAAGSAVSPTILEYSGIGMKSILEPLGIDTVVDLPVGLNLQDQTTATVRSRITSAGAGQGQAAWFATFNETFGDYSEKAHELLNTKLEQWAEEAVARGGFHNTTALLIQYENYRDWIVNHNVAYSELFLDTAGVASFDVWDLLPFTRGYVHILDKDPYLHHFAYDPQYFLNELDLLGQAAATQLARNISNSGAMQTYFAGETIPGDNLAYDADLSAWTEYIPYHFRPNYHGVGTCSMMPKEMGGVVDNAARVYGVQGLRVIDGSIPPTQMSSHVMTVFYAMALKISDAILEDYASMQ
notes: made in house; host or cells: Saccharomyces cerevisiae (pYES2)
On to B3, for which, in data set [3], the Km was 18.1 mM mM and the kcat is given as 150 s-1 s-1.
